Values joined by “and” are separate entries in the source; they are usually repeats but may differ in a detail not shown here. Equal entries are not always repeated.
Tests used:
[1] = biological target: FlaK L371E with a C-terminal His6-tag (Vibrio alginolyticus); assay: cross-linking
[2] = biological target: FlaK, wild type, with a C-terminal His6-tag (Vibrio alginolyticus); assay: SEC
[3] = biological target: FlaK, wild type, with a C-terminal His6-tag (Vibrio alginolyticus); assay: cross-linking
[4] = biological target: FlaK, wild type, with a C-terminal His6-tag (Vibrio alginolyticus); assay: cross-linking + SEC
[5] = biological target: FlaK E237Q with a C-terminal His6-tag (Vibrio alginolyticus); assay: cross-linking
[6] = biological target: FlaK Q140E with a C-terminal His6-tag (Vibrio alginolyticus); assay: cross-linking
[7] = biological target: FlaK K171A with a C-terminal His6-tag (Vibrio alginolyticus); assay: SEC
[8] = biological target: FlaK K171A with a C-terminal His6-tag (Vibrio alginolyticus); assay: cross-linking
[9] = biological target: FlaK K171A with a C-terminal His6-tag (Vibrio alginolyticus); assay: cross-linking + SEC
[10] = biological target: FlaK I365E with a C-terminal His6-tag (Vibrio alginolyticus); assay: SEC
[11] = biological target: FlaK I365E with a C-terminal His6-tag (Vibrio alginolyticus); assay: cross-linking
[12] = biological target: FlaK D236A with a C-terminal His6-tag (Vibrio alginolyticus); assay: cross-linking

FlaK L371E with a C-terminal His6-tag (natural protein)
stoichiometry N [1]: 2

FlaK, wild type, with a C-terminal His6-tag (natural protein)
stoichiometry N [2]: 2
stoichiometry N [3]: 2
stoichiometry N [4]: 4 and 6

FlaK E237Q with a C-terminal His6-tag (natural protein)
stoichiometry N [5]: 2

FlaK Q140E with a C-terminal His6-tag (natural protein)
stoichiometry N [6]: 2

FlaK K171A with a C-terminal His6-tag (natural protein)
stoichiometry N [7]: 2
stoichiometry N [8]: 2
stoichiometry N [9]: 4 and 6

FlaK I365E with a C-terminal His6-tag (natural protein)
stoichiometry N [10]: 2
stoichiometry N [11]: 2

FlaK D236A with a C-terminal His6-tag (natural protein)
stoichiometry N [12]: 2
